Laboratory results published in the supplement of paper PMC10724198.
± gives the standard deviation of the averaged measurements.

Tested on: Saccharomyces cerevisiae
Assay: protein stability index of tFT-peptide fusion (C-terminal peptide) (PSI (0-1 scale)); higher = more stable (slower turnover)
Conditions: temperature: 30 C
Protocol: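 MPS profiling in S. cerevisiae of the yeast C-terminome library: the last 12 aa of each annotated ORF are fused to the C-terminus of a sfGFP-mCherry timer, after a GGGS linker. Cells are FACS-sorted into 8 mCherry/sfGFP bins and deep-sequenced. PSI runs from 0 (unstable) to 1 (stable); wild type and das1Δ backgrounds, two technical replicates each.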

[1] = genetic background: das1 deletion

Sequence | protein stability index [1] | protein stability index (genetic background: wild type)
LRIYKNPPLDGP [YJL163C C-terminal 12 aa] | 0.729 ± 0.022 | 0.745 ± 0.017
LRRYEEDLFCTF [IES2 C-terminal 12 aa] | 0.759 ± 0.029 | 0.7425 ± 0.0059
LRWKKRNGIASK [NOP16 C-terminal 12 aa] | 0.636 ± 0.017 | 0.663 ± 0.028
LSHKGIKHLNIT [YGR266W C-terminal 12 aa] | 0.702 ± 0.022 | 0.68 ± 0.057
LSKRRTRLINFN [PXL1 C-terminal 12 aa] | 0.727 ± 0.013 | 0.538 ± 0.047
LSLRTKNTENKE [YGL159W C-terminal 12 aa] | 0.716 ± 0.038 | 0.688 ± 0.033
LSQRVKKEYAAN [COQ21 C-terminal 12 aa] | 0.708 ± 0.024 | 0.685 ± 0.0074
LSSSDDNYGSLA [SNA2 C-terminal 12 aa] | 0.702 ± 0.013 | 0.669 ± 0.034
LTARRKNRQQWE [COX23 C-terminal 12 aa] | 0.704 ± 0.022 | 0.692 ± 0.024
LTINDLDVTFVI [YCR041W C-terminal 12 aa] | 0.721 ± 0.022 | 0.71 ± 0.0024
LTTSVLCCVVFT [CNE1 C-terminal 12 aa] | 0.348 ± 0.0076 | 0.364 ± 0.0028
LTYNTSCQRRQK [YOR161W-A C-terminal 12 aa] | 0.715 ± 0.0089 | 0.717 ± 0.072
LVSYFLKVQMNL [YNL095C C-terminal 12 aa] | 0.514 ± 0.02 | 0.491 ± 0.011
LYKPSVWDLFEY [FZF1 C-terminal 12 aa] | 0.716 ± 0.016 | 0.6818 ± 0.0023
LYVCIYISAFIK [FYV12 C-terminal 12 aa] | 0.137 ± 0.019 | 0.143 ± 0.0053
MAHRIKNFRDEL [SIL1 C-terminal 12 aa] | 0.712 ± 0.0079 | 0.672 ± 0.032
MAINDCFDQAQG [YER076C C-terminal 12 aa] | 0.695 ± 0.0062 | 0.693 ± 0.012
MASVVKGNATSA [PHO90 C-terminal 12 aa] | 0.69425 ± 0.00061 | 0.688 ± 0.027
MDLKRFKGEFSF [PEX5 C-terminal 12 aa] | 0.69824 ± 0.00026 | 0.685 ± 0.036
MDSRVAHGNILI [SRB5 C-terminal 12 aa] | 0.70004 ± 0.00046 | 0.688 ± 0.092
MGCIKGTVKTKY [ABZ2 C-terminal 12 aa] | 0.668 ± 0.039 | 0.756 ± 0.14

Sequence | protein stability index [1] | protein stability index (genetic background: wild type)
MIENEKQNPAKQ [OSH6 C-terminal 12 aa] | 0.693 ± 0.0075 | 0.692 ± 0.028
MMGFSNFATSKK [SNU23 C-terminal 12 aa] | 0.728 ± 0.011 | 0.683 ± 0.035
MNKKHHKPIPFD [RRD2 C-terminal 12 aa] | 0.762 ± 0.027 | 0.697 ± 0.0073
MPSATTKNPYAQ [CAF120 C-terminal 12 aa] | 0.709 ± 0.042 | 0.686 ± 0.034
MRLLGLTPVERM [YDR341C C-terminal 12 aa] | 0.672 ± 0.00072 | 0.696 ± 0.034
MTRLKKLLTLEW [ZIP2 C-terminal 12 aa] | 0.817 ± 0.047 | 0.733 ± 0.046
MVSSLRNANHIF [BCS1 C-terminal 12 aa] | 0.712 ± 0.028 | 0.681 ± 0.025
NAKSKVFSIENN [LSG1 C-terminal 12 aa] | 0.681 ± 0.039 | 0.678 ± 0.015
NCEPIATTFRAN [MGL2 C-terminal 12 aa] | 0.7086 ± 0.00098 | 0.681 ± 0.018
NDDSKDEDDIIP [MAL33 C-terminal 12 aa] | 0.6831 ± 0.0019 | 0.731 ± 0.056
NDTEHVTLHTNT [YDL228C C-terminal 12 aa] | 0.711 ± 0.0095 | 0.688 ± 0.031
NEASKATGASVH [YOP1 C-terminal 12 aa] | 0.7 ± 0.0098 | 0.737 ± 0.094
NGPVNNNAHLVA [FAT3 C-terminal 12 aa] | 0.689 ± 0.0098 | 0.709 ± 0.049
NGSDNVTPGGRL [STE50 C-terminal 12 aa] | 0.708 ± 0.014 | 0.685 ± 0.022
NIIIIILYVYIH [MOR1 C-terminal 12 aa] | 0.227 ± 0.0036 | 0.228 ± 0.025
NISNGSSTQDMK [HPR1 C-terminal 12 aa] | 0.703 ± 0.029 | 0.704 ± 0.065
NKGSQLLAKLLK [PUF6 C-terminal 12 aa] | 0.7305 ± 0.0034 | 0.674 ± 0.036
NKHDLHLRPETY [YAR010C C-terminal 12 aa] | 0.658 ± 0.018 | 0.678 ± 0.021
NKHDLHLRPGTY [YDR098C-A C-terminal 12 aa] | 0.66848 ± 3.1e-05 | 0.658 ± 0.007
NKLLDKESVSED [YLR046C C-terminal 12 aa] | 0.709 ± 0.027 | 0.711 ± 0.11
